Data published in doi:10.1101/2021.03.10.434834 (bioRxiv, 2021).

B1: REGN10985 Fab (Fab, V domains shown)
VH: EVQLVESGGGLVQPGRSLRLSCAASGFTFDDYAMHWVRQAPGKGLEWVSGISWNRGSIGYADSVKGRFTISRDNAKNSLYLQMSSLRAEDTALYYCAKDGERWDSVVVPSARNGMDVWGQGTTVTVSS
VL: QSVLTQPPSVSGAPGQRVTISCTGSSSNIGAGYDVHWYQQLPGTAPKLLIYGNSNRPSGVPDRFSGSKSGTSASLAITGLQAEDEADYYCQSYDSSLSGSYVFGTGTKVTVL
B2: REGN10989 Fab (Fab, V domains shown)
VH: QVQLVQSGAEVKKPGASVKVSCKASGYIFTGYYMHWVRQAPGQGLEWMGWINPNSGGANYAQKFQGRVTLTRDTSITTVYMELSRLRFDDTAVYYCARGSRYDWNQNNWFDPWGQGTLVTVSS
VL: QSALTQPASVSGSPGQSITISCTGTSSDVGTYNYVSWYQQHPGKAPKLMIFDVSNRPSGVSDRFSGSKSGNTASLTISGLQAEDEADYYCSSFTTSSTVVFGGGTKLTVL

Biological target: SARS-CoV-2 spike protein receptor binding domain (SARS-CoV-2, UniProt P0DTC2)
Test: cryo-EM structure

Row | Binder | binding result
1 | B1 | binds
2 | B2 | binds
